Results published in US20210147507A1, “METHODS TO AUGMENT OR ALTER SIGNAL TRANSDUCTION” (Bellicum Pharmaceuticals, Inc., priority 2017, published 2021).
Blank lines part the entries; values can stand above or below the molecule they belong to.

System: chimeric Caspase-9 polypeptide
Test: Caspase-9 mutant classes and basal activity (Table 5)
Assay type: cell-based
Conditions: Caspase-9 mutant class; for IC50: ligand IC50 compared with unmodified chimeric Caspase-9
Excerpt: Even though homo-dimerization of wild-type initiator Caspase-9 is energetically unfavorable, making them mostly monomers in solution [14-16], the low-level inherent basal activity of unprocessed Caspase-9 [15, 17] is enhanced in the presence of the Apaf-1-based “apoptosome”, its natural allosteric regulator [6]. Moreover, supra-physiological expression levels and/or co-localization could lead to proximity-driven dimerization, further enhancing basal activation. The modified cells of the present application may comprise nucleic acids coding for a chimeric Caspase-9 polypeptide having lower basal signaling activity. Polynucleotides comprising Caspase-9 mutants with lower basal signaling may be expressed in the modified cells used for cell therapy herein. In these examples, the modified cells may include a safety switch, comprising a polynucleotide encoding a lower basal signaling chimeric Caspase-9 polypeptide. In the event of an adverse event following administration of the modified cells comprising the chimeric signaling polypeptides or chimeric antigen receptors herein, Caspase-9 activity may be induced by administering the dimerizer to the patient, thus inducing apoptosis and clearance of some, or all of the modified cells. In some examples, the amount of dimerizer administered may be determined as an amount designed to remove the highest amount, at least 80% or 90% of the modified cells. In other examples, the amount of dimerizer administered may be determined as an amount designed to remove only a portion of the modified cells, in order to alleviate negative symptoms or conditions, while leaving a sufficient amount of therapeutic modified cells in the patient, in order to continue therapy. Methods for using chimeric Caspase-9 polypeptides to induce apoptosis are discussed in PCT Application Number PCT/US2011/037381 by Malcolm K. Brenner et al., titled Methods for Inducing Selective Apoptosis, filed May 20, 2011, and in U.S. patent application Ser. No. 13/112,739 by Malcolm K. Brenner et al., titled Methods for Inducing Selective Apoptosis, filed May 20, 2011, issued Jul. 28, 2015 as U.S. Pat. No. 9,089,520. Chimeric caspase polypeptides having modified basal activity are discussed in PCT Application Serial Number PCT/US2014/022004 by David Spencer et al., titled Modified Caspase Polypeptides and Uses Thereof, filed Mar. 7, 2014, published Oct. 9, 2014 as WO2014/164348, and in U.S. patent application Ser. No. 13/792,135 by David Spencer et al., titled Modified Caspase Polypeptides and Uses Thereof, filed Mar. 7, 2014; and in U.S. patent application Ser. No. 14/640,553 by Spencer et al., filed Mar. 6, 2015. Methods for inducing partial apoptosis of the therapeutic modified cells are discussed in PCT Application Number PCT/US14/040964 by Kevin Slawin et al., titled Methods for Inducing Partial Apoptosis Using Caspase Polypeptides, filed Jun. 4, 2014, published Dec. 11, 2014 as WO2014/197638, and in U.S. patent application Ser. No. 14/296,404 by Kevin Slawin et al., titled Methods for Inducing Partial Apoptosis Using Caspase Polypeptides, filed Jun. 4, 2014. These patent applications and publications are all incorporated by reference herein in their entireties.

[1] = basal (ligand-independent) signaling compared with unmodified chimeric Caspase-9

chimeric Caspase-9 polypeptide, sequence (P62942 2-108 F37V limits assumed): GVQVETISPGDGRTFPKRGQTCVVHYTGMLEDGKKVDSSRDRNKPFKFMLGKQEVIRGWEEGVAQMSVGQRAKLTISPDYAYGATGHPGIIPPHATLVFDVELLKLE

Basal Activity [1]: Decreased | IC50: higher IC50
B6: N405Q-S196D (protein)
chain: GFGDVGALESLRGNADLAYILSMEPCGHCLIINNVNFCRESGLRTRTGSNIDCEKLRRRFSDLHFMVEVKGDLTAKKMVLALLELARQDHGALDCCVVVILSHGCQASHLQFPGAVYGTDGCPVSVEKIVNIFNGTSCPSLGGKPKLFFIQACGGEQKDHGFEVASTSPEDESPGSNPEPDATPFQEGLRTFDQLDAISSLPTPSDIFVSYSTFPGFVSWRDPKSGSWYVETLDDIFEQWAHSEDLQSLLLRVANAVSVKGIYKQMPGCFQFLRKKLFFKTSASRA

Basal Activity [1]: Decreased | IC50: higher IC50
B7: N405Q-T317S (protein)
chain: GFGDVGALESLRGNADLAYILSMEPCGHCLIINNVNFCRESGLRTRTGSNIDCEKLRRRFSSLHFMVEVKGDLTAKKMVLALLELARQDHGALDCCVVVILSHGCQASHLQFPGAVYGTDGCPVSVEKIVNIFNGTSCPSLGGKPKLFFIQACGGEQKDHGFEVASTSPEDESPGSNPEPDASPFQEGLRTFDQLDAISSLPTPSDIFVSYSTFPGFVSWRDPKSGSWYVETLDDIFEQWAHSEDLQSLLLRVANAVSVKGIYKQMPGCFQFLRKKLFFKTSASRA

Basal Activity (mutants marked * = predicted): Decreased
B9: N405Q-T317Sco (protein, UniProt P55211 1-416, looked up, variant N405Q T317S)
chain: MDEADRRLLRRCRLRLVEELQVDQLWDALLSRELFRPHMIEDIQRAGSGSRRDQARQLIIDLETRGSQALPLFISCLEDTGQDMLASFLRTNRQAAKLSKPTLENLTPVVLRPEIRKPEVLRPETPRPVDIGSGGFGDVGALESLRGNADLAYILSMEPCGHCLIINNVNFCRESGLRTRTGSNIDCEKLRRRFSSLHFMVEVKGDLTAKKMVLALLELAQQDHGALDCCVVVILSHGCQASHLQFPGAVYGTDGCPVSVEKIVNIFNGTSCPSLGGKPKLFFIQACGGEQKDHGFEVASTSPEDESPGSNPEPDASPFQEGLRTFDQLDAISSLPTPSDIFVSYSTFPGFVSWRDPKSGSWYVETLDDIFEQWAHSEDLQSLLLRVANAVSVKGIYKQMPGCFQFLRKKLFFKTS
modifications: codon-optimized; in iC9 construct

Basal Activity [1]: Decreased | IC50: higher IC50
B11: F406A (protein)
chain: GFGDVGALESLRGNADLAYILSMEPCGHCLIINNVNFCRESGLRTRTGSNIDCEKLRRRFSSLHFMVEVKGDLTAKKMVLALLELARQDHGALDCCVVVILSHGCQASHLQFPGAVYGTDGCPVSVEKIVNIFNGTSCPSLGGKPKLFFIQACGGEQKDHGFEVASTSPEDESPGSNPEPDATPFQEGLRTFDQLDAISSLPTPSDIFVSYSTFPGFVSWRDPKSGSWYVETLDDIFEQWAHSEDLQSLLLRVANAVSVKGIYKQMPGCFNALRKKLFFKTSASRA

Basal Activity [1]: Decreased | IC50: higher IC50
B12: F406W (protein)
chain: GFGDVGALESLRGNADLAYILSMEPCGHCLIINNVNFCRESGLRTRTGSNIDCEKLRRRFSSLHFMVEVKGDLTAKKMVLALLELARQDHGALDCCVVVILSHGCQASHLQFPGAVYGTDGCPVSVEKIVNIFNGTSCPSLGGKPKLFFIQACGGEQKDHGFEVASTSPEDESPGSNPEPDATPFQEGLRTFDQLDAISSLPTPSDIFVSYSTFPGFVSWRDPKSGSWYVETLDDIFEQWAHSEDLQSLLLRVANAVSVKGIYKQMPGCFNWLRKKLFFKTSASRA

Continued, molecule first:

B1: D330A-S144D (protein)
chain: GFGDVGALEDLRGNADLAYILSMEPCGHCLIINNVNFCRESGLRTRTGSNIDCEKLRRRFSSLHFMVEVKGDLTAKKMVLALLELARQDHGALDCCVVVILSHGCQASHLQFPGAVYGTDGCPVSVEKIVNIFNGTSCPSLGGKPKLFFIQACGGEQKDHGFEVASTSPEDESPGSNPEPDATPFQEGLRTFDQLAAISSLPTPSDIFVSYSTFPGFVSWRDPKSGSWYVETLDDIFEQWAHSEDLQSLLLRVANAVSVKGIYKQMPGCFNFLRKKLFFKTSASRA
Basal Activity [1]: Decreased | IC50: higher IC50

B2: D330A-S183A (protein)
chain: GFGDVGALESLRGNADLAYILSMEPCGHCLIINNVNFCRESGLRTRTGANIDCEKLRRRFSSLHFMVEVKGDLTAKKMVLALLELARQDHGALDCCVVVILSHGCQASHLQFPGAVYGTDGCPVSVEKIVNIFNGTSCPSLGGKPKLFFIQACGGEQKDHGFEVASTSPEDESPGSNPEPDATPFQEGLRTFDQLAAISSLPTPSDIFVSYSTFPGFVSWRDPKSGSWYVETLDDIFEQWAHSEDLQSLLLRVANAVSVKGIYKQMPGCFNFLRKKLFFKTSASRA
Basal Activity [1]: Decreased | IC50: higher IC50

B3: D330A-S196A (protein)
chain: GFGDVGALESLRGNADLAYILSMEPCGHCLIINNVNFCRESGLRTRTGSNIDCEKLRRRFSALHFMVEVKGDLTAKKMVLALLELARQDHGALDCCVVVILSHGCQASHLQFPGAVYGTDGCPVSVEKIVNIFNGTSCPSLGGKPKLFFIQACGGEQKDHGFEVASTSPEDESPGSNPEPDATPFQEGLRTFDQLAAISSLPTPSDIFVSYSTFPGFVSWRDPKSGSWYVETLDDIFEQWAHSEDLQSLLLRVANAVSVKGIYKQMPGCFNFLRKKLFFKTSASRA
Basal Activity [1]: Decreased | IC50: higher IC50

B4: N405Q-S144A (protein)
chain: GFGDVGALEALRGNADLAYILSMEPCGHCLIINNVNFCRESGLRTRTGSNIDCEKLRRRFSSLHFMVEVKGDLTAKKMVLALLELARQDHGALDCCVVVILSHGCQASHLQFPGAVYGTDGCPVSVEKIVNIFNGTSCPSLGGKPKLFFIQACGGEQKDHGFEVASTSPEDESPGSNPEPDATPFQEGLRTFDQLDAISSLPTPSDIFVSYSTFPGFVSWRDPKSGSWYVETLDDIFEQWAHSEDLQSLLLRVANAVSVKGIYKQMPGCFQFLRKKLFFKTSASRA
Basal Activity [1]: Decreased | IC50: higher IC50

B5: N405Q-S144D (protein)
chain: GFGDVGALEDLRGNADLAYILSMEPCGHCLIINNVNFCRESGLRTRTGSNIDCEKLRRRFSSLHFMVEVKGDLTAKKMVLALLELARQDHGALDCCVVVILSHGCQASHLQFPGAVYGTDGCPVSVEKIVNIFNGTSCPSLGGKPKLFFIQACGGEQKDHGFEVASTSPEDESPGSNPEPDATPFQEGLRTFDQLDAISSLPTPSDIFVSYSTFPGFVSWRDPKSGSWYVETLDDIFEQWAHSEDLQSLLLRVANAVSVKGIYKQMPGCFQFLRKKLFFKTSASRA
Basal Activity [1]: Decreased | IC50: higher IC50

B8: N405Q-S144Aco (protein, UniProt P55211 1-416, looked up, variant N405Q S144A)
chain: MDEADRRLLRRCRLRLVEELQVDQLWDALLSRELFRPHMIEDIQRAGSGSRRDQARQLIIDLETRGSQALPLFISCLEDTGQDMLASFLRTNRQAAKLSKPTLENLTPVVLRPEIRKPEVLRPETPRPVDIGSGGFGDVGALEALRGNADLAYILSMEPCGHCLIINNVNFCRESGLRTRTGSNIDCEKLRRRFSSLHFMVEVKGDLTAKKMVLALLELAQQDHGALDCCVVVILSHGCQASHLQFPGAVYGTDGCPVSVEKIVNIFNGTSCPSLGGKPKLFFIQACGGEQKDHGFEVASTSPEDESPGSNPEPDATPFQEGLRTFDQLDAISSLPTPSDIFVSYSTFPGFVSWRDPKSGSWYVETLDDIFEQWAHSEDLQSLLLRVANAVSVKGIYKQMPGCFQFLRKKLFFKTS
modifications: codon-optimized; in iC9 construct
Basal Activity (mutants marked * = predicted): Decreased

B10: F404Y (protein)
chain: GFGDVGALESLRGNADLAYILSMEPCGHCLIINNVNFCRESGLRTRTGSNIDCEKLRRRFSSLHFMVEVKGDLTAKKMVLALLELARQDHGALDCCVVVILSHGCQASHLQFPGAVYGTDGCPVSVEKIVNIFNGTSCPSLGGKPKLFFIQACGGEQKDHGFEVASTSPEDESPGSNPEPDATPFQEGLRTFDQLDAISSLPTPSDIFVSYSTFPGFVSWRDPKSGSWYVETLDDIFEQWAHSEDLQSLLLRVANAVSVKGIYKQMPGCYNFLRKKLFFKTSASRA
Basal Activity [1]: Decreased | IC50: higher IC50
